What was measured:
[1] = system: KalbTG and S. mobaraensis MTG; assay: dual site-specific labeling with Cy3 and Cy5 labels; assay type: biochemical; conditions: KalbTG + Cy3 label 30 min, then S. mobaraensis MTG + Cy5 label 15 min
Protocol: Turning to FIG. 6C, the high sequence specificity of KalbTG was used to conjugate a 6 kDa Cy3 label to the YRYRQ (SEQ ID NO:1) site of a 7 kDa substrate peptide comprising both the KalbTG and S. mobaraensis MTG glutamine-containing motifs. The reaction was run for 30 minutes to saturate the YRYRQ (SEQ ID NO:1) site. Analysis by SDS-PAGE confirmed that the label was integrated at a single site. The substrate peptide was subsequently incubated for 15 minutes with S. mobaraensis MTG and a 6 kDa Cy5 label. […] Accordingly, KalbTG may be useful for the industrial-scale synthesis of complex protein conjugates of interest in therapeutic or diagnostic applications.
For the orthogonal labeling experiment, a molecule containing both KalbTG and MTG Q-tags was chemically synthesized to have the primary chemical structure:
(§1) If not noted otherwise, labeling reactions were performed for 15 minutes at 37° C. in the presence of 72 μM substrate protein, 720 μM label peptide and 1 μM transglutaminase in 200 mM MOPS pH 7.2 and 1 mM EDTA. […] Samples were taken between incubation steps and analyzed by SDS-PAGE, in-gel fluorescence (BioRad ChemiDoc gel documentation system, Cy3 and Cy5 LED and filter sets). […] The mixture was filtered (0.2 μm spin filter) and analyzed by LC-MS with UV detection at 214 nm and 305 nm.

[2] = system: Z-[GGGYRYRQGGGG (SEQ ID NO:75)]-OH; assay: GLDH assay of transglutaminase enzyme activity after storage; assay type: biochemical; conditions: as measured by GLDH assay
Protocol: A further experiment was performed to determine the activity of KalbTG enzymes prepared from two different constructs, and stored at two different temperatures. The KalbTGt3 (SEQ ID NO:10) and KalbTGt1 (SEQ ID NO: 12) enzymes tested were obtained respectively from the EcSlyD2-Xa-KalbTGt3-8×His-tag construct (SEQ ID NO:8) and the EcSlyD2-Xa-KalbTGt1-8×His-tag construct (SEQ ID NO:11) described in Example 3. The activity of the two KalbTG enzymes was tested after storage at either 4° C. or −20° C. and compared against the activity of commercially available S. mobaraensis MTG according to a published protocol (Oteng-Pabi, et al., 2013. Analytical biochemistry 441(2): 169-173). In particular, assays were performed at 37° C. in 200 μl total volume. The assay mixture included 200 mM MOPS, 1 mM EDTA, and 1 mM DTT at pH 7.4. Further, α-ketoglutarate and NADH were added at a concentration of 500 μM, along with 2 U/ml GLDH, and between 0.1 μg and 1.0 μg of one of the transglutaminase enzymes. The glutamine substrate was 200 μM Z-[[…] (SEQ ID NO:75)]-OH, and the amine donor was 10 mM cadaverine, where Z represents a carboxybenzyl group. All data were collected in triplicate (average of 3 wells in a microtiter plate) and baseline activity (buffer without enzyme) subtracted.

[3] = differential scanning calorimetry (DSC); assay type: physicochemical; conditions: purified and activated enzyme
Protocol: Initial screening at the 5 ml scale provided clear evidence that proteins with the anticipated electrophoretic mobility of full length KalbTG fusions were expressed, and that a fusion with tandem SlyD chaperones (Scholz, et al. 2005. Journal of Molecular Biology 345(5): 1229-1241) yielded the highest amount of soluble protein among all the constructs tested (FIG. 3A). The expression of this construct was further optimized by screening different incubation times and temperatures, Isopropyl β-D-1-thiogalactopyranoside (IPTG) inducer concentrations and induction times, media types and volumes. With reference to FIGS. 3B and 3C, the modular nature of the chosen fusion construct afforded the SlyD fusion protein, the pro-enzyme, and the activated enzyme by a combination of sequential purification and proteolytic cleavage steps. The expression construct 200 included, starting from N-terminus, two sequential SlyD chaperones 202, a factor Xa protease cleavage site (C1), the KalbTG pro-peptide 204, a trypsin protease cleavage site (C2) the KalbTG enzyme 206, and an 8×-histidine tag 208. The SlyD chaperones 202 are cleaved from the expression construct 200 with a factor Xa protease 210. […] The melting point of the purified and activated enzyme was determined to be 48.9° C. using differential scanning calorimetry (DSC). […]

[4] = system: KalbTG; assay: Cy3 labeling of Q-tagged SlyD/FKBP scaffold, SDS-PAGE; assay type: biochemical, Kutzneria albida
Description: Next, the array and in-solution data were applied to perform site-specific labeling on protein substrates. The molecular chaperone SlyD is a useful scaffold for labeling approaches as epitope-containing loops can be grafted onto the FKBP domain for presentation to binders or enzymes (PCT App. Pub. No. WO 2012/150321 A1 to Andres et al.). A chimeric protein consisting of the Thermus thermophilus FKBP domain and the KalbTG recognition sequence RYRQR (SEQ ID NO:14) was produced. Labeling with a ten-fold excess of KalbTG K-tag-Cy3 and a substrate to enzyme ratio of 72:1 afforded approximately 70% yield of a labeled protein species after 15 minutes (FIG. 6A). This yield remained constant over a time-course of 60 minutes. […] The molecular weight shift from 13 kDa to 19 kDa was observed on the SDS-PAGE gel, corresponding exactly to the incorporation of a single 6 kDa label molecule. […]
as §1

Z-[GGGYRYRQGGG (SEQ ID NO: 101)]-PEG27-[GIEGRG (SEQ ID NO: 102)]-PEG27-PEG27-[GGGDYALQGG (SEQ ID NO: 103)]-OH
yield of dually labeled construct [1]: nearly quantitative yield

B1: KalbTG: Kutzneria albida microbial transglutaminase (protein)
chain: MHKWFLRAAVVAAVGFGLPTLIATTAQAAAVAAPTPRAPLAPPLAEDRSYRTWRVEDYVEAWERYHGREMTEDERENLARGCIGVTVVNLNREDLSNPPLNLSFGSLRTAEAVQAALNKIVDTHPSPAQYEAAVAKDPILKRLKNVVKALPSWIDSAKLKASIFSKRFYSWQNPDWSEERAHTTYRPDRETDQVDMSTYRYRARPGYVNFDYGWFDQDTNTWWHANHEEPRMVVYQSTLRHYSRPLQDFDEQVFTVAFAKKD
modifications: Hypothetical_transglutaminase
notes: Kutzneria albida microbial transglutaminase
increase in KalbTG enzymatic activity by purification process with ammonium chloride [2]: up to 9 fold | melting point (DSC) [3]: 48.9 °C | pH of highest labeling efficiency ([4]; 15 minute reaction, pH 6.2 to 9.0 tested): 7.4

B2: FKBP domain RYRQR: chimeric protein of Thermus thermophilus FKBP domain and KalbTG recognition sequence RYRQR (protein)
chain: MKVGQDKVVTIRYTLQVEGEVLDQGELSYLHGHRNLIPGLEEALEGREEGEAFQAHVPAEKAYGAGSGGGGRYRQRGGGGGSSGKDLDFQVEVVKVREATPEELLHGHAHHHHHHHH
modifications: synthetic peptide sequence - KalbTG acyl-donor sequence grafted onto the FKBP domain of SlyD; FKBP_domain; acyl-donor_tag; 8xHis_tag
yield of labeled protein species / incorporation of label ([4]; ten-fold excess KalbTG K-tag-Cy3, substrate to enzyme ratio 72:1, after 15 minutes): approximately 70%

— US11054425B2, “System and method for identification and characterization of transglutaminase species” (Roche Sequencing Solutions, Inc., priority 2014, dated 2021)
